The subject of assay [1] is PMNs. The conditions noted are these: Kao et al., 1994; cited from earlier work.
Assay [2] concerns MPs. Conditions: Kao et al., 1994; cited from earlier work.
In assay [3] the test system is PMNs. Nature of the assay: 125I-human mini TyrRS binding and competition assay on PMNs. Conditions: 10 nM 125I-mini TyrRS, 200-fold molar excess of unlabeled ligand, on ice 2 hours. The protocol: The interaction of human mini TyrRS and PMNs was examined in binding studies using radioiodinated TyrRS molecules (Moser et al., 1993, J. Biol. Chem. 268:7125-28). Custom radioiodination of mini TyrRS with was performed by Research & Diagnostic Antibody (Richmond, Calif.). In the binding assays, 2×10^6 PMNs were first suspended in 120 μl of RPMI-1640 medium containing 20 mM Hepes (pH 7.4) and 10 mg/ml bovine serum albumin. […] Following incubation, cells were separated from unbound radioactivity by centrifugation at approximately 8000×g for 2 minutes through 500 μL, of a 10% sucrose/phosphate-buffered saline (PBS) cushion. The supernatant was aspirated, and the cell sediment was resuspended using EcoLite (ICN Biomedicals, Irvine, Calif.) and analyzed in a scintillation counter.
Following incubation, cells were separated from unbound radioactivity as described herein.

Assay [4] has as its system human umbilical vein endothelial cells (HUVECs). As to the kind of experiment: HUVEC migration assay (modified Boyden chamber). Format: cell-based. The conditions noted are these: 50 nM TyrRS molecule or 0.5 nM VEGF165, 6 hours. The procedure: In contrast, α-chemokines lacking the ELR motif act as angiostatic factors (id.). In order to evaluate the angiogenic activity of TyrRS, which contains the ELR motif, human full-length TyrRS and human mini TyrRS were first examined for their ability to induce endothelial cell migration. Such angiogenic assays were performed using human umbilical vein endothelial cells (HUVECs) (Clonetics, Walkersville, Md.). Cells were maintained in EGM-2® BULLETKIT® medium (Clonetics) in an atmosphere of 6% CO2 at 37° C. according to the supplier's instructions.
Cell migration assays were performed using the modified Boyden chamber (6.5 mm Transwells) with polycarbonate membranes (8.0 μm pore size) (Costar Corp., Cambridge, Mass.) (Masood et al., 1999, Blood 93:1038-44). Wells were coated overnight with 25 μg/mL human fibronectin (Biosource International, Camarillo, Calif.) in PBS and then allowed to air-dry. HUVECs were suspended in Dulbecco's modified Eagle's medium (DMEM) (Gibco-BRL, Gaithersburg, Md.) containing 0.1% BSA (Sigma) and 2×10^5 cells per well were added to the upper chamber. The chemotactic stimulus (50 nM of a given TyrRS molecule or 0.5 nM of human vascular endothelial growth factor-165 (VEGF165) (Biosource International, Camarillo, Calif.)) was placed in the lower chamber, and the cells were allowed to migrate for 6 hours at 37° C. in a 6% CO2 incubator. After incubation, non-migrant cells were removed from the upper face of the Transwell membrane with a cotton swab and migrant cells, those attached to the lower face, were fixed in methanol and visualized with the HEMACOLOR® stain set (EM Diagnostic Systems, Gibbstown, N.J.). Migrating cells were counted in high-power fields (HPFs). HUVECs were suspended in media with the inhibitor for 30 minutes before placement in the chamber. Each determination shown in FIG. 16 represents the average of nine HPF measurements.

The subject of assay [5] is PMNs. Nature of the assay: PMN chemotaxis assay (ChemoTX microchemotaxis chamber). Format: cell-based, human. Conditions: sample proteins 1 nM, 45 min. The protocol: Cells for the various cytokine assays described were prepared from acid citrate dextrose-treated blood of normal healthy volunteers. Human PMNs were isolated from the blood by centrifugation (700×g) over Histopaque 1077 and 1119 (Sigma). […] This procedure was repeated twice. Human MPs were isolated by centrifugation on Histopaque 1077 (Sigma). The mononuclear fraction was obtained, washed twice in Hanks' balanced salt solution, resuspended in RPMI-1640 medium (Sigma) containing 10% heat-inactivated fetal bovine serum (Sigma), plated in tissue culture flasks, and incubated in a 6% CO2 incubator at 37° C. for 1-2 hours (Kumagai et al., 1979, J. Immunol. Methods 29:17-25). Nonadherent cells were removed by washing the flasks three times with Hanks' balanced salt solution, and adherent cells were harvested by incubation with calcium-magnesium free phosphate-buffered saline containing 2 mM EDTA for 15 minutes at 4° C., followed by extensive washing.
PMN chemotaxis assays were performed in a ChemoTX microchemotaxis chamber (described herein). Sample proteins (1 nM) were added to the lower compartment of chemotaxis chambers, and 10^4 PMNs were added to the upper compartment. Chambers were incubated for 45 min, and migrating cells were counted in HPFs. Each determination shown in FIG. 2 represents the average of nine HPF measurements.

The test system of assay [6] is chick chorioallantoic membrane (CAM). Nature of the assay: In vivo angiogenesis assay in chick chorioallantoic membrane (CAM). The conditions noted are these: 250 ng TyrRS molecule or 25 ng VEGF165 on filter disk, 72 hours. The procedure: In vivo angiogenesis assays were conducted in chick chorioallantoic membrane (CAM) (Nicolaou et al., 1998, Bioorg. Med. Chem. 6:1185-208). Ten-day-old chick embryos were purchased from Mcintyre Poultry (Lakeside, Calif.) and were incubated at 37° C. and 70% humidity. A small hole was made with a small crafts drill (Dremel, Emerson Electric, Racine, Wis.) directly over the air sac at the end of the egg. The embryos were candled to determine a location to drill a second hole directly over embryonic blood vessels. […] A window was cut in the eggshell over the dropped CAM, exposing the CAM to direct access for experimental manipulation. Cortisone acetate-treated 5 mm filter disks were soaked with a particular protein sample (25 ng of VEGF165 or 250 ng of a given TyrRS molecule) and the filter disks added directly to the CAMs, which were relatively devoid of preexisting blood vessels. The windows were sealed with sterile tape and incubated at 37° C. […] After 72 hours, the CAM tissue associated with the filter disk was harvested and quantified using a stereomicroscope. Angiogenesis was assessed as the number of visible blood vessel branch points within the defined area of the filter disks. Each determination shown in FIG. 17 represents the mean from 5-8 embryos.

Consider “R-I-G-R-I-I-T (RIGRIIT; listed as Homo sapiens) [synthetic peptide of seven residues near the amino-terminus of human mature EMAP II, Cys replaced by Arg]”, for which the “PMN migration induced by synthetic peptide (literature)” value in assay [1] is reported as “can induce PMN or MP migration”. The “MP migration induced by synthetic peptide (literature)” value in assay [2] was “can induce PMN or MP migration”.

B1: mini TyrRS mutant: mini TyrRS in which the ELR motif was mutated to ELQ (Glu-Leu-Gln) (protein)
chain: MGDAPSPEEKLHLITRNLQEVLGEEKLKEILKERELKIYWGTATTGKPHVAYFVPMSKIADFLKAGCEVTILFADLHAYLDNMKAPWELLELQVSYYENVIKAMLESIGVPLEKLKFIKGTDYQLSKEYTLDVYRLSSVVTQHDSKKAGAEVVKQVEHPLLSGLLYPGLQALDEEYLKVDAQFGGIDQRKIFTFAEKYLPALGYSKRVHLMNPMVPGLTGSKMSSSEEESKIDLLDRKEDVKKKLKKAFCEPGNVENNGVLSFIKHVLFPLKSEFVILRDEKWGGNKTYTAYVDLEKDFAAEVVHPGDLKNSVEVALNKLLDPIREKFNTPALKKLASAAYPDPSKQKPMAKGPAKNSEPEEVILEHHHHHH
modifications: His6 tag; Human mini TyrRS mutant in pET20B
Turning to B1, the “inhibition of 125I-mini TyrRS binding to PMNs by unlabeled ligand” value in assay [3] is “did not inhibit the binding”. Moreover, in assay [4], the HUVEC chemotaxis result is “no chemotaxis was observed”. Besides, the “PMN chemotaxis (PMN migration)” value in assay [5] was “did not induce PMN migration”. Besides, in assay [6], the “in vivo angiogenesis in chick CAM (blood vessel branch points)” value is reported as “failed to induce in vivo angiogenesis”.

These data come from patent publication US9205136B2, “Human aminoacyl-tRNA synthetase polypeptides useful for the regulation of angiogenesis” (THE SCRIPPS RESEARCH INSTITUTE, priority 2000, dated 2015).
